In test [1] the target is T1, VP1 pentamer of BKV genotype IV (BK virus genotype IV, UniProt P14996 30-300).
T1 construct: also called VP1 pentamers of genotype IV; GIV; not shown: N-terminal His-tag of pESPRIT002; C-terminal biotin acceptor peptide (BAP) of pESPRIT002
The test is described as follows: ELISA, coated VP1 pentamer. (In general: In an ELISA, binding on a coated surface is turned into a signal by an enzyme label.)

The target of test [2] is T2, VP1 pentamer of BKV genotype II (BK virus genotype II, UniProt P14996 30-300).
T2 construct: also called VP1 pentamers of genotype II; GII; not shown: N-terminal His-tag of pESPRIT002; C-terminal biotin acceptor peptide (BAP) of pESPRIT002
Nature of the test: ELISA, coated VP1 pentamer.

The target in test [3] is VP1 capsid protein on BKV genotype Ia pseudovirions (BK-D; JF894228) (BK virus genotype Ia (BK-D)). Nature of the test: cell-based or functional assay.
In test [4] the target is VP1 capsid protein on BKV genotype IVc2 pseudovirions (A-66H; AB369093) (BK virus genotype IVc2 (A-66H)). Nature of the test: cell-based or functional assay.
In test [5] the target is VP1 capsid protein on BKV genotype II pseudovirions (GBR-12; AB263920) (BK virus genotype II (GBR-12)). The test is described as follows: cell-based or functional assay.

We go through five molecules from patent US20250376505A1 (UNIVERSITE DE STRASBOURG, published 2025).

Broadly, the EC50 is the concentration needed to bring the measured effect to its halfway point. Read a low EC50 as an effect from little substance.

B1: C9P1 (antibody, V domains shown)
VH: EVQLLESGGGLVQPGGSLRLSCVTSGFTFSSYSMTWVRQAPGKGLEWVSYISSSSRTISYADSVQGRFTISRDNAKNVLYLQMNSLRAEDTAVYYCARQAVAHFDYWGQGTLVTVSS
VL: EIVLTQSPGTLSLSPGERATLSCRASQRVSSNYLAWYQQKPGQAPRLLIYGASSRATGIPDRFSGSGSGTDFTLTISRLEPEDFAVYYCQQYGTSPRSFGQGTKVEIK
B1: the binding result in test [1] and in test [2] was “no binding (tested: 50 µg/mL (starting concentration))” each time.

B2: E10P2 (antibody, V domains shown)
VH: EVQLLESGGALVQPGGSLRLSCAASGFTFRSYAMNWVRQAPGKGLEWVSSLSSSGTTTYYADSVKGRFTISRDNSKNTMYLQMDSLRGEDTAVYYCAKDRNAQWLGSEPLDPWGQGTLVTVSS
VL: EIVLTQSPGTLSLSPGERATLSCRASQSVSSSYLAWYQQKPGQAPRLLIYGASSRATGIPDRFSGSGSGTDFTLTISSLQPDDFAIYYCQQAYTFPWTFGQGTKLEIK
Take B2: the binding result in test [1] and in test [2] was “no binding (tested: 50 µg/mL (starting concentration))” throughout.

B3: B5P4 (antibody, V domains shown)
VH: QVQLVQSGAEVKKPGSSVKVSCKASGGRFSRYGSSWVRQAPGQGLEWMGGIIPLLGTANYAQKFQDRVSITADESTSTVYMHLSSLRSEDTAVYYCATARREYDRPGAEYFIQWGQGTLVTVSS
VL: EIVMTQSPATLSVSPGERATLSCRASQSVSTNLAWYQQKPGQAPRLLIYDAFLRATGIPARFSGSGSGTEFTLTISSLQPEDFAVYYCQQYNYWPPLTFGGGTKVEIK
B3: the binding result in test [1] and in test [2] was “no binding (tested: 50 µg/mL (starting concentration))” each time.

B4: D11P7 (antibody, V domains shown)
VH: EVQLVESGGGLVQPGGSLRLSCAASGFTFRSYTMDWVRQAPGKGLEWVSCISGSSNHKYYADSVRGRFTISRDNAKNSLFLQMNSLRAEDSAVYYCAREDDILTPLYGMDVWGPGTTVTVSS
VL: QSALTQPASVSGSPGQSITISCTGTSSDVGAYNYVSWYRLRPGKDPHLIIYDVSHRPAGVSNRFSGSKSGNTASLTISGLQAEDEDEYYCCSYAHRGTPLFGGGTKLTVL
As to B4, the binding result in test [1] and in test [2] was “no binding (tested: 50 µg/mL (starting concentration))” in each case.

B5: D9P6 (antibody, V domains shown)
VH: QLQLQESGPGLVKPSETLSLTCTVSGTYISTNSYYWGWIRQPPGKGLEWIGSIEYGGSTYYNPSLRSRLTISVDTSKNHFSLRLSSVTAADTAMYYCASANSHYYDSGGYCAPSALDIWGQGTMVTVSS
VL: EIVMTQSPATLSVSPGERVTLSCRASQSASSHLAWYQHKRGQAPRLLIYAASSRATGIPARFSGRGSGTEFTLTISSLQSEDFAVYYCQQYNNWPPGYSFGQGTKLEIK
In the case of B5, the “Neutralization PSV IC50” value in test [3], in test [4] and in test [5] was over 50 mg/L throughout. Besides, the figures for the concentration giving a half-maximal response (EC50) in test [1] and in test [2] were 4 mg/L and 9 mg/L, respectively.
